Molecular target: GST-AKT1 CA (85 kDa) (UniProt P31749 1-480)
Assay: BLI

GST-AKT1 CA (85 kDa), sequence (P31749 whole entry): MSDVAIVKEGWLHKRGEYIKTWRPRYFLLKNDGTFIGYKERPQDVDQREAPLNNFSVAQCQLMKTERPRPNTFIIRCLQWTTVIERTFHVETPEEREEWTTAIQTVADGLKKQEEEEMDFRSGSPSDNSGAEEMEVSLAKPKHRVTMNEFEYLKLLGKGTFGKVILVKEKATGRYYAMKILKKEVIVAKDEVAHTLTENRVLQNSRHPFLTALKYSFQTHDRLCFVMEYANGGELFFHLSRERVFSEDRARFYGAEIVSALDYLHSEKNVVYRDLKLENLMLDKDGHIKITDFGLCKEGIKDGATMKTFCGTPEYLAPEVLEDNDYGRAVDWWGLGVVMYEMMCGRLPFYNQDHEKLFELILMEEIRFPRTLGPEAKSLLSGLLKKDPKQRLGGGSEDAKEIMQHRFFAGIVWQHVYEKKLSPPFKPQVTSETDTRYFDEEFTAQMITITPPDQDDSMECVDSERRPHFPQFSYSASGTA

Kd: 77.2 pM
B1: GST-PALLD third IgC domain (40 kDa) (domain or fragment)
chain: PFFEMKLKHYKIFEGMPVTFTCRVAGNPKPKIYWFKDGKQISPKSDHYTIQRDLDGTCSLHTTASTLDDDGNYTIMAANPQGRIS
modifications: labelled by biotin

From article PMC5603589 (2017)
